The values below come from the Immune Epitope Database (IEDB).

What is called Kd is a measure of binding affinity in units of concentration. What is called IC50 is the midpoint of a concentration-inhibition curve.

For one assay, the target named is HLA-B*15:01. The assay is described as follows: IEDB peptide-MHC binding, purified MHC/direct/fluorescence; filed as Kd, often an IC50 or EC50 that approximates it; ≥ and ≤ were set here for values at or beyond the usual limits of such assays.
The target of the next assay is HLA-A*01:01. The assay is described as above.
Assay [1] has as its target HLA-A*02:01. The assay is described as follows: IEDB peptide-MHC binding, purified MHC/competitive/fluorescence; filed as Kd, often an IC50 or EC50 that approximates it; ≥ and ≤ were set here for values at or beyond the usual limits of such assays.
A further assay deals with HLA-B*07:02. The assay is described as follows: IEDB peptide-MHC binding, purified MHC/direct/fluorescence; filed as Kd, often an IC50 or EC50 that approximates it; ≥ and ≤ were set here for values at or beyond the usual limits of such assays.
The target of the next assay is HLA-A*26:01. Description: IEDB peptide-MHC binding, purified MHC/competitive/radioactivity; filed as Kd, often an IC50 or EC50 that approximates it; ≥ and ≤ were set here for values at or beyond the usual limits of such assays.
Another assay deals with HLA-B*44:03. The description is as above.
For a further assay, the target named is HLA-B*44:02. The assay is described as above.
Assay [2] addresses HLA-A*02:01. The assay is described as follows: IEDB peptide-MHC binding, purified MHC/direct/fluorescence; filed as Kd, often an IC50 or EC50 that approximates it; ≥ and ≤ were set here for values at or beyond the usual limits of such assays.
For another assay, the target named is HLA-A*69:01. The description is as above.
Assay [3] has as its target HLA-A*02:01. Description: IEDB peptide-MHC binding, purified MHC/competitive/fluorescence; ≥ and ≤ were set here for values at or beyond the usual limits of such assays.
Another assay deals with HLA-B*27:05. The assay is described as follows: IEDB peptide-MHC binding, purified MHC/direct/fluorescence; filed as Kd, often an IC50 or EC50 that approximates it; ≥ and ≤ were set here for values at or beyond the usual limits of such assays. Conditions: source organism: Mycobacterium tuberculosis.
Another assay deals with HLA-B*40:01. The assay is described as above. Conditions: source organism: Rickettsia prowazekii.
For another assay, the target named is HLA-B*58:01. The assay is described as above. Conditions: source organism: Rickettsia prowazekii.
In another assay the target is HLA-A*31:01. The assay is described as above. Conditions: source organism: SARS-CoV1.
Another assay concerns the target HLA-A*68:01. The assay is described as follows: IEDB peptide-MHC binding, purified MHC/competitive/radioactivity; filed as Kd, often an IC50 or EC50 that approximates it; ≥ and ≤ were set here for values at or beyond the usual limits of such assays. Conditions: source organism: SARS coronavirus Tor2.
The target of another assay is HLA-A*33:01. The description is as above. To be noted: source organism: SARS coronavirus Tor2.
[4] abbreviates: source organism: Dengue virus 4 Philippines/H241/1956.
Setting [5] is: source organism: Dengue virus 2 Jamaica/1409/1983.
[6] abbreviates: source organism: Bacillus thuringiensis.
Where [7] appears, read: source organism: Mycobacterium tuberculosis.
Where [8] appears, read: source organism: Zaire ebolavirus.
Setting [9] is: source organism: Oligoflexia bacterium.
[10] abbreviates: source organism: Cryptosporidium hominis.
Where [11] appears, read: source organism: Orthohantavirus hantanense.
[12] abbreviates: source organism: Giardia lamblia ATCC 50803.
Setting [13] is: source organism: Sudan ebolavirus.
The mark [14] stands for this setting: source organism: Vaccinia virus.
Where [15] appears, read: source organism: Cryptosporidium parvum.
Where [16] appears, read: source organism: Dengue virus 3 Martinique/1243/1999.

Regarding ALTAGAGAY, in the assay with HLA-B*15:01 (source organism: Mycobacterium tuberculosis str. Haarlem), the Kd was determined as 450 nM.
As for ASLIPDATY, the Kd in the assay with HLA-A*01:01 (source organism: Mammarenavirus lassaense) was 17100 nM.
On to DIRTLLPILL, for which the Kd in the assay with HLA-A*02:01 [1] (source organism: Variola virus) was determined as 737 nM.
Turning to DPNPQEVVL, in the assay with HLA-B*07:02 (source organism: Human immunodeficiency virus 1), the Kd is not below 30700 nM.
DVRNDMISY: in the assay with HLA-A*26:01 (setting [4]), the Kd was 431 nM.
In the case of EEEEAGVLW, the Kd with HLA-B*44:03 (setting [5]) is 162 nM; with HLA-B*44:02 (setting [5]) it was 84.7 nM.
On to EEFWKLVDR, for which the Kd with HLA-B*44:03 (source organism: Dengue virus 3 Sri Lanka/1266/2000) stood at 3110 nM.
Consider EEYVDYMPVM, for which the Kd in the assay with HLA-B*44:03 (setting [4]) is 869 nM.
EIVNLLDNKV: in the assay with HLA-A*02:01 [1] (source organism: Vaccinia virus Copenhagen), the Kd was not below 20000 nM.
Consider ELGGGFGTL, for which the Kd came to 7000 nM with HLA-A*02:01 [2] (setting [6]) and 680 nM in the assay with HLA-A*69:01 (setting [6]).
On to ELIDGISLG, for which the Kd in the assay with HLA-A*26:01 (source organism: Dengue virus 4 Dominica/814669/1981) worked out at 472 nM.
With ELITEQMAPH, in the assay with HLA-A*26:01 (setting [4]), the Kd was 6060 nM.
The sequence EMFGGTPAV registered a Kd in the assay with HLA-A*02:01 [2] (setting [7]) of 2.1 nM.
Take ENSSAMVQV: in the assay with HLA-A*02:01 [3] (setting [8]), the IC50 is not below 277000 nM.
Consider ETEQPTLDY, for which the Kd in the assay with HLA-A*01:01 (source organism: Homo sapiens) came out at 16.3 nM; with HLA-A*69:01 (source organism: Homo sapiens), 2890 nM.
ETLETLLLLT: the Kd in the assay with HLA-A*26:01 (setting [5]) came out at 17400 nM.
For ETLGEKWKNR, in the assay with HLA-A*26:01 (source organism: Dengue virus 2 Peru/IQT2913/1996), the Kd turned out to be 14600 nM.
Take ETLGEKWKSR: in the assay with HLA-A*26:01 (setting [5]), the Kd was found to be 14300 nM.
As to EYSGGLHGV, the equilibrium dissociation constant (Kd) in the assay with HLA-A*02:01 [2] (setting [9]) is 18000 nM; in the assay with HLA-A*69:01 (setting [9]) it was 460 nM.
Regarding FQWSDDPFI, the Kd with HLA-A*02:01 [2] (setting [10]) is 7.3 nM; with HLA-A*69:01 (setting [10]), not below 20000 nM.
In turn, FRWDYIPPT gave a Kd with HLA-B*27:05 of 332 nM.
GAAGARGAL: the Kd with HLA-B*07:02 (source organism: Hepacivirus hominis) was determined as 12.8 nM.
Consider GELCEDTMTY, for which the Kd in the assay with HLA-B*44:03 (source organism: Dengue virus 1 Brazil/97-11/1997) turned out to be 25 nM.
Regarding GLQADAPHL, the Kd with HLA-A*02:01 [2] (setting [11]) was 104 nM; with HLA-A*69:01 (setting [11]), not below 20000 nM.
In the assay with HLA-B*15:01 (source organism: Mycobacterium tuberculosis variant bovis BCG str. Pasteur 1173P2), GLVRALTAF gave a Kd of 255 nM.
Turning to GMSLLEYGV, the Kd in the assay with HLA-A*02:01 [2] (setting [12]) was 3.5 nM; with HLA-A*69:01 (setting [12]), not below 20000 nM.
Regarding GQFGSGWTW, the Kd with HLA-B*40:01 is 2870 nM; with HLA-B*15:01 (source organism: Rickettsia prowazekii), 138 nM; in the assay with HLA-B*58:01, 168 nM.
For GTIGAVSLDF, the Kd with HLA-A*26:01 (setting [5]) came out at 454 nM.
In the assay with HLA-A*02:01 [3] (setting [8]), GVATDVPSA came in with an IC50 of 1460 nM.
As for IESALNDTW, the results for the Kd with HLA-B*44:03 (setting [5]) and in the assay with HLA-B*44:02 (setting [5]) were 67.9 nM and 127 nM, respectively.
On to IESSKNQTW, for which the results for the Kd in the assay with HLA-B*44:03 (setting [4]) and with HLA-B*44:02 (setting [4]) were 158 nM and 135 nM, respectively.
As to IKKPDGSEC, the IC50 with HLA-A*02:01 [3] (setting [13]) is not below 318000 nM.
Consider KLIIHNPEL, for which the Kd with HLA-A*02:01 [1] (setting [14]) came out at 2 nM.
Turning to KLIQIEKVL, the figures for the Kd with HLA-A*02:01 [2] (setting [15]) and with HLA-A*69:01 (setting [15]) were 3250 nM and not below 20000 nM, respectively.
For KLSSLGLNAV, in the assay with HLA-A*02:01 [3] (source organism: Hepatitis C virus subtype 1b), the IC50 is 25 nM.
For KVIQPRVEK, the dissociation constant (Kd) with HLA-A*31:01 was 427 nM; with HLA-A*68:01 it was 890 nM; in the assay with HLA-A*33:01 it was 7340 nM.
Regarding LILAKPKET, in the assay with HLA-A*02:01 [3] (setting [13]), the concentration for half-maximal inhibition (IC50) came out at 10800 nM.
Turning to LLPGVAHSI, the Kd in the assay with HLA-A*02:01 [2] (source organism: Amur virus) is 4.2 nM; in the assay with HLA-A*69:01 (source organism: Amur virus), not below 20000 nM.
With LLWAFAHRQ, the Kd is 551 nM with HLA-A*02:01 [2] (setting [7]) and not below 20000 nM with HLA-A*69:01 (setting [7]).
Sequence LLWFNYLFG gave an IC50 with HLA-A*02:01 [3] (source organism: Variola virus) not below 327000 nM.
On to LMQDCAIKA, for which the Kd with HLA-A*02:01 [2] (setting [12]) was 82.1 nM; in the assay with HLA-A*69:01 (setting [12]), not below 20000 nM.
On to LRFANPLSN, for which, in the assay with HLA-A*02:01 [3] (setting [14]), the half-maximal inhibitory concentration (IC50) was not below 164000 nM.
In the case of LVPKNSPGM, in the assay with HLA-A*02:01 [3] (setting [13]), the IC50 came to 17700 nM.
In the assay with HLA-A*02:01 [3] (setting [8]), MDYHKILTA had an IC50 not below 114000 nM.
Turning to MENLLWKQI, the results for the Kd in the assay with HLA-B*44:03 (setting [16]) and in the assay with HLA-B*44:02 (setting [16]) were 93.4 nM and 6.79 nM, respectively.
